Reference: patent publication US20230399390A1

Tests used:
[1] = biological target: rat Nogo-A (rat) (UniProt Q9JK11); assay: cell-based or functional assay
[2] = biological target: human Nogo-A d20plus region (human aa position 543-866), recombinantly produced in E. coli (human) (UniProt Q9NQC3); assay: ELISA, coated d20plus (human, as read from the context), internal standard
human Nogo-A d20plus region (human aa position 543-866), recombinantly produced in E. coli (human), sequence (Q9NQC3 543-866 limits assumed): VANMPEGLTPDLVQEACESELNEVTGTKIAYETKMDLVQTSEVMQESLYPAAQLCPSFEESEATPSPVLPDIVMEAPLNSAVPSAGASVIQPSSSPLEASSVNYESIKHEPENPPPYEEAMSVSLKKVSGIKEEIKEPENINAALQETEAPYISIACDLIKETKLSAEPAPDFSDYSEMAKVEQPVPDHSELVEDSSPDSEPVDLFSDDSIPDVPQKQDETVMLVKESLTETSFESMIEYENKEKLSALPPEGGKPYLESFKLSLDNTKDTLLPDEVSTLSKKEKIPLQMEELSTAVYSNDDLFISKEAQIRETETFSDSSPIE

rat Nogo-A (rat), sequence (Q9JK11 whole entry): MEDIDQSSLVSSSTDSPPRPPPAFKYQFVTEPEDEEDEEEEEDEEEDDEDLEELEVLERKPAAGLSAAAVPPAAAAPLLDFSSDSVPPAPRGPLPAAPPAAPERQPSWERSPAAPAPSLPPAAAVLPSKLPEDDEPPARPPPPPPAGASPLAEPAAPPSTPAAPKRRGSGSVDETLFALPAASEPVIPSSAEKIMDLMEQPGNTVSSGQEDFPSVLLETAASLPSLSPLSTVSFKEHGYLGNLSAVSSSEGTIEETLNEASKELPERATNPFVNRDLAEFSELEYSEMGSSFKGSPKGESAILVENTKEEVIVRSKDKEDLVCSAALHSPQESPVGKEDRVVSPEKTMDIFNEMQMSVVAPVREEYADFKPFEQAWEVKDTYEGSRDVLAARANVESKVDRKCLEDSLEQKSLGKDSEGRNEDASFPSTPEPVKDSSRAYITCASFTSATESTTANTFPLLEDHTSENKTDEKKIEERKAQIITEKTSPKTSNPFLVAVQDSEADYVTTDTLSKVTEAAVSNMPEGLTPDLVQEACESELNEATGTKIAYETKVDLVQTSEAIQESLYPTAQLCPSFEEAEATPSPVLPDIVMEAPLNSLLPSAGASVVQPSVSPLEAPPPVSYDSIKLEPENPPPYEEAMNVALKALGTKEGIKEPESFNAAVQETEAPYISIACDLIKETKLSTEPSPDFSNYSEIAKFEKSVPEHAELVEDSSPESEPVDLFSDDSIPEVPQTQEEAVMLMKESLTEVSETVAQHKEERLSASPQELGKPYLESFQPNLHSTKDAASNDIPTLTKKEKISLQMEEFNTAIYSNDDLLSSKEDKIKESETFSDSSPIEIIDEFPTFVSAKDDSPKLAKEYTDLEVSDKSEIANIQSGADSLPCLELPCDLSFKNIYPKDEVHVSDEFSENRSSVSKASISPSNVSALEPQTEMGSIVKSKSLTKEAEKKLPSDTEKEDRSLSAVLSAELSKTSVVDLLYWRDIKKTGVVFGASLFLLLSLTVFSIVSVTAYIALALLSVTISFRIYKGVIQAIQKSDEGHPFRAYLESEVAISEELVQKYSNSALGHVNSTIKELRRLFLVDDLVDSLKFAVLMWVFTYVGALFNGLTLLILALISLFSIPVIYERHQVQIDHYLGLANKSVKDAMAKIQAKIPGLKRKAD

- IC50 for stimulating neurite outgrowth of N1E-115 cells in presence of rat CNS extract [1]: 19.3 nM
- EC50 [2]: 0.14 nM
Substance: murine monoclonal anti-Nogo-A antibody 11C7
